These results are taken from patent US7960364.

The target of this data set is HIV-1 envelope glycoprotein gp120 (UniProt P04578).

Turning to trypsin, the “saturability of trypsin-catalyzed gp120 cleavage with gp120 concentration” value is reported as “nonsaturable at concentrations up to 1 µM”.
